# Source: patent publication US7022496
# Target: catalytic subunit of the cellular DNA-dependent protein kinase (human) (UniProt P78527)
# Test: cell-based or functional assay
# Chain of UniProt P78527 (P78527 whole entry): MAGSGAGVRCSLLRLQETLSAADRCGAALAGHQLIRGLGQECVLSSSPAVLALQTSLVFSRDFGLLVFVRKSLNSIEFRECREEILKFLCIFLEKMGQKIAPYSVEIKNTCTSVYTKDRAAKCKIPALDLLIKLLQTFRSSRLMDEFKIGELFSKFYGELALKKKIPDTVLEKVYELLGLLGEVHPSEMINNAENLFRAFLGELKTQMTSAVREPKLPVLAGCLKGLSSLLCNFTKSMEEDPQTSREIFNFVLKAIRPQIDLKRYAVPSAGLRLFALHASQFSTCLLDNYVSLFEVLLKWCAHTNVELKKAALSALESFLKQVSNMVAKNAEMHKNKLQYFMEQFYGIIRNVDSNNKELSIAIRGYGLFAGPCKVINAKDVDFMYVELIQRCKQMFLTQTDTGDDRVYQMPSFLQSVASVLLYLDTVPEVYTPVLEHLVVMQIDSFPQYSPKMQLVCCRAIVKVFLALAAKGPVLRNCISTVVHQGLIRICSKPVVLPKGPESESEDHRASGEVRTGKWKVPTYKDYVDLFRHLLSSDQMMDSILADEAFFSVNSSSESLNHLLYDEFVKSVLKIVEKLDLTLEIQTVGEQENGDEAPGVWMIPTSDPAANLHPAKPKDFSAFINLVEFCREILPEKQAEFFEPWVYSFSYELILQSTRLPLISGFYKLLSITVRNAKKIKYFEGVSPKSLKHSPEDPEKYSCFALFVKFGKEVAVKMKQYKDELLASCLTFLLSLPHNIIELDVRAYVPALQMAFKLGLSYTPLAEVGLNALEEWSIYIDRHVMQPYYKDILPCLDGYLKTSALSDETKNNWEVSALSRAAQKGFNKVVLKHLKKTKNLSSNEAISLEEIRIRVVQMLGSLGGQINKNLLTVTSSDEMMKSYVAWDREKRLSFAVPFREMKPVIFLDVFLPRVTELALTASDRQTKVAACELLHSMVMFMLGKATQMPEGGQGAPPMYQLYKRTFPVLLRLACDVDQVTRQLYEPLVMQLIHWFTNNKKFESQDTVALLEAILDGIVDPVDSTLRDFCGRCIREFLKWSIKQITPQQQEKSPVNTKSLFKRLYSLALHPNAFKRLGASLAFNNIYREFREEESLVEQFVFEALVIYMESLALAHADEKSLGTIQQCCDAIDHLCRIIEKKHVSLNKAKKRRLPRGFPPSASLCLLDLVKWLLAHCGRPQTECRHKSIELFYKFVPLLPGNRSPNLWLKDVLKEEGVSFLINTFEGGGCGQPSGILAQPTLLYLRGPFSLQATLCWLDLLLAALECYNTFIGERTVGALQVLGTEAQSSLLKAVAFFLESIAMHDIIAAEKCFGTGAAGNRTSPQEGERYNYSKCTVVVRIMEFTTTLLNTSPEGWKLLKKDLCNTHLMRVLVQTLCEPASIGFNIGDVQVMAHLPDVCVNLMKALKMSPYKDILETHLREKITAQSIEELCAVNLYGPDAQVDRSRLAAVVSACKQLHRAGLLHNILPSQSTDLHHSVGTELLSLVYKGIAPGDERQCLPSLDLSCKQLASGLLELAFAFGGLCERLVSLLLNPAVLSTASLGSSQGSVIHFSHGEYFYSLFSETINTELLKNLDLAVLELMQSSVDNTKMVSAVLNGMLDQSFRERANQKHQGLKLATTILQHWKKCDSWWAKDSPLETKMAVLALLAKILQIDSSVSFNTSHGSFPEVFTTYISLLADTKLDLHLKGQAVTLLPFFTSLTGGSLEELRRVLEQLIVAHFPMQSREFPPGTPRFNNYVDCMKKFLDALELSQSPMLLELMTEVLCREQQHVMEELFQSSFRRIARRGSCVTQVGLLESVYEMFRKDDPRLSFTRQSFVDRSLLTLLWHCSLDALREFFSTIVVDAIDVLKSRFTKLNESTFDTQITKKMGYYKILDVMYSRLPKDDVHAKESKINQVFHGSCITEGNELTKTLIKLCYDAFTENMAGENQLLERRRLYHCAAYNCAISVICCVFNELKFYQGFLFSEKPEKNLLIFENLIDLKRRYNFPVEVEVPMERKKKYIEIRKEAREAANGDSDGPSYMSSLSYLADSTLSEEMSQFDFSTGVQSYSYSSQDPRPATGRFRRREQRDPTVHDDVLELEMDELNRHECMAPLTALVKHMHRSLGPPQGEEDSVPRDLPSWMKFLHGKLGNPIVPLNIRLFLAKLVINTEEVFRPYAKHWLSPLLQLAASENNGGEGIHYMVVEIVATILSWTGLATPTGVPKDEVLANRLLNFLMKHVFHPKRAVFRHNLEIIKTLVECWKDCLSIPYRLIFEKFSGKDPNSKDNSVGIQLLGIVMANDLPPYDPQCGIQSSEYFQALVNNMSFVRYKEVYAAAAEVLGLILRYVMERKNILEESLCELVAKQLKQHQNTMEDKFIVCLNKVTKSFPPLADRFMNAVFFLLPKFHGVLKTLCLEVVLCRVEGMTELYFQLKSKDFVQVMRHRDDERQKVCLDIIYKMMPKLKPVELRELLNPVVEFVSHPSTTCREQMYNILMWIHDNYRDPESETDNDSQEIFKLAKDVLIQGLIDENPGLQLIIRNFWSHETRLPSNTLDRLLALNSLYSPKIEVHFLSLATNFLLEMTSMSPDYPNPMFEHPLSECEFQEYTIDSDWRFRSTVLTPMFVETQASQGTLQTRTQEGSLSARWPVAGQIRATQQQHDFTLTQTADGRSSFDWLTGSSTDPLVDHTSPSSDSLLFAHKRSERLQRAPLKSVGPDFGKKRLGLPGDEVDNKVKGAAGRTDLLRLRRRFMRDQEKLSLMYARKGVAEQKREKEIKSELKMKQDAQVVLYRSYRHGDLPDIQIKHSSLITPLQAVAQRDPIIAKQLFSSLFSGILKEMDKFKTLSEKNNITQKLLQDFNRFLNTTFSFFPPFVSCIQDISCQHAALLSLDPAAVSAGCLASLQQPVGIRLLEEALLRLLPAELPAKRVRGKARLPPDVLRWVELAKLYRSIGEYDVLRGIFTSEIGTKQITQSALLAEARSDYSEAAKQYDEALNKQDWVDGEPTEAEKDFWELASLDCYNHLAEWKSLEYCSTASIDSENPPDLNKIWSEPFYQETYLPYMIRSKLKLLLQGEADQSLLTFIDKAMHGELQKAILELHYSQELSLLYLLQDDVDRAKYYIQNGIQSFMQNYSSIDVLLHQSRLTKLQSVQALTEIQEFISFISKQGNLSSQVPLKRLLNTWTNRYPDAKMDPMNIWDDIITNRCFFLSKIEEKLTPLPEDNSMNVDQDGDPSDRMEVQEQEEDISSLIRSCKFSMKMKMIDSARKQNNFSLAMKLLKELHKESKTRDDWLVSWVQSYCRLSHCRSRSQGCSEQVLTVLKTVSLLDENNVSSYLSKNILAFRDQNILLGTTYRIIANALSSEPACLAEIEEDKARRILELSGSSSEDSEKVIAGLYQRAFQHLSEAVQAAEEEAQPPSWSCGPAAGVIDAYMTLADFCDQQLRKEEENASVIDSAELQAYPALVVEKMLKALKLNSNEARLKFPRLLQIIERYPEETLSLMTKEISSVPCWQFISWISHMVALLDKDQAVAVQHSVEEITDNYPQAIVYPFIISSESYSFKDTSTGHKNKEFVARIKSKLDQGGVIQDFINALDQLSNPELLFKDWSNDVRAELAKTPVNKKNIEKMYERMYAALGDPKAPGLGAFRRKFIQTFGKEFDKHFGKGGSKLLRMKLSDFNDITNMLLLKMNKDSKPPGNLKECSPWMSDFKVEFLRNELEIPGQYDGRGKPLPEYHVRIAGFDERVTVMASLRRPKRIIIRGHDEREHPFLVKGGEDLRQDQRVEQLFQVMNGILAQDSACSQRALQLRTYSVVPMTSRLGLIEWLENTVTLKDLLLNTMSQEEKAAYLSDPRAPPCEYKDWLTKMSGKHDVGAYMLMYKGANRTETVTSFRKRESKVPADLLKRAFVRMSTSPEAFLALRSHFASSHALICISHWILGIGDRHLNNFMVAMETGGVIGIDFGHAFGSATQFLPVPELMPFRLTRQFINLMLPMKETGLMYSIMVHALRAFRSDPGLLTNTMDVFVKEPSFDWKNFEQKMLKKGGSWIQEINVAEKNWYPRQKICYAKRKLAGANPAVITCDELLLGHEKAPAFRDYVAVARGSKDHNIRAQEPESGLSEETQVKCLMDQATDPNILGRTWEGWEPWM
# Chain of adenovirus E4 34k protein (product of early region 4 ORF6), expressed from plasmid OE6.5 as a fusion with a c-myc epitope (P03239 whole entry, the tested form may be a part): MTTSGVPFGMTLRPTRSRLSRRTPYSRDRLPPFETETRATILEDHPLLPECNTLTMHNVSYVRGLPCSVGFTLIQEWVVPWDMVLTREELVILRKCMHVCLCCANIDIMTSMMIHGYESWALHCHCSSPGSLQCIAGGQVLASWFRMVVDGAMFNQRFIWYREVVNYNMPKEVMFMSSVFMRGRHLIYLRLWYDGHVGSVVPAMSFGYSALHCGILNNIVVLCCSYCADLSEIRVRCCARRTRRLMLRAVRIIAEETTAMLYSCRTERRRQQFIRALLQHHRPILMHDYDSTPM
substance,measurement,value
"adenovirus E4 34k protein (product of early region 4 ORF6), expressed from plasmid OE6.5 as a fusion with a c-myc epitope",V(D)J recombination frequency (recombinant formation of substrate plasmid pJH200 in transfected 293 cells),5 fold
